Measured values as given in patent US20230121197A1, “ANTIBODIES SPECIFICALLY BINDING THE CARBOXYMETHYLATED CATALYTIC SUBUNIT OF PROTEIN PHOSPHATASE 2A” (Medizinische Universität Wien, priority 2020, published 2023).

Experiments:
[1] = target: α-carboxymethylated PP2Ac (Homo sapiens, UniProt P67775); experiment: IHC specificity validation (NaOH treatment of slides); design: NaOH treatment to chemically remove the methyl group from the methylated PP2A-C; from tissue; host or cells: de-paraffinized tissue slides; conditions: slides incubated in 200 mM NaOH
Procedure: Immunohistochemical staining was performed on the DAKO Autostainer (DAKO, Carpinteria, Calif.) using Envision+ or liquid streptavidin-biotin and diaminobenzadine (DAB) as the chromogen. De-paraffinized sections were labeled with mouse monoclonal antibody 7C10-C5 (1:200) overnight at 4 C. Microwave 10 mM Tris HCl, pH9 containing 1 mM EDTA epitope retrieval was used prior to staining. Appropriate negative (no primary antibody) and positive controls (pancreas) were stained in parallel with each set of slides studied. Peptide competition studies were performed using 2 peptides ([…]*) (SEQ ID NO:115) differing in the methylation status at position L (marked with a *); FIG. 13E: Peptides were incubated at ambient temperature for 60 mins at 10-1000× molar ratios before being applied to the slide. FIG. 13F: Before being stained, slides were incubated in freshly made 200 mM NaOH for 10 mins at 4° C. and then neutralized by several washes in TBST.
Stained slides were scanned using an APERIO AT2 (Leica) and the digital images imported into QuPath (Bankhead et al., 2017). TMA cores were analyzed for percentage of cells staining and intensity. In FIGS. 13E and F, higher visibility of the dark cell nuclei indicates weaker α-carboxymethylated PP2Ac staining.

[2] = target: T1, carboxymethylated PP4c C-terminal peptide (ac-[…]-CH3) (Homo sapiens, UniProt P60510); experiment: Surface plasmon resonance (Biacore T200), steady state analysis, carboxymethylated PP4c peptide; format: binding; conditions: PP4 Me peptide, 360 sec contact time, 40 μL/min
T1 construct: The following 11-mer peptides corresponding to the carboxymethylated or non-methylated carboxy-terminus of PP2A and PP4 catalytic subunits were used as antigens
Procedure: (§1) The differential affinity of anti-carboxymethylated PP2Ac antibodies, 7C10-C5 and 2A10, to carboxymethylated PP2A catalytic subunit versus noncarboxymethylated PP2A catalytic subunit was determined by surface plasmon resonance (SPR) on a Biacore T200 (GE Healthcare) at the Core Facility Biomolecular & Cellular Analysis (University of Natural Resources and Life Sciences Vienna BOKU). The affinity of 7C10-C5 for carboxymethylated and noncarboxymethylated catalytic subunit of PP4 (PP4c), a PP2A-related phosphatase, was also determined. […] The KD of the binding of 7C10-C5 (or 2A10) to non-carboxymethylated PP2Ac or PP4c could not be determined because at the highest analyte sample concentration (5000 nM) only very weak binding signals were detected indicating KD values of at least >5000 nM or higher. […]
(§2) SPR experiments were performed with the BiacoreT200 instrument (Cytiva). […] The sensorgrams obtained were analyzed with BiacoreT200 Evaluation Software (version 3.1). […]

[3] = target: T2, non-carboxymethylated PP2Ac (ac-[…]-OH) (Homo sapiens, UniProt P67775); experiment: Surface plasmon resonance (Biacore T200), non-carboxymethylated PP2Ac peptide; format: binding; conditions: SPR
T2 construct: The following 11-mer peptides corresponding to the carboxymethylated or non-methylated carboxy-terminus of PP2A and PP4 catalytic subunits were used as antigens
Procedure: as §1, §2

PP6 = experiment: Summary of cross-reactivities of C-terminal PP2Ac antibodies (Table 4), PP6; conditions: antibodies screened for binding methylated PP2Ac
Text: Examples of antibodies with a preference for non-methylated PP2Ac are mouse monoclonal antibody 4B7 (Yu (2001), Mol Biol Cell 12, 185-199), mouse monoclonal antibody 1D7 generated by the Ogris lab but also the rabbit monoclonal E155 antibody from Abeam and the mouse monoclonal F-8 from SCBT that were thought to be specific for pTyr^307.

[4] = target: PP2Ac C-terminal peptide pT304-meL309, ac-HVTRRpTPDYFL-CH3 (human); experiment: ELISA, peptide coated at 2 µg/ml, supernatant 1:50
[5] = target: PP2Ac C-terminal peptide pY307-meL309, ac-HVTRRTPDpYFL-CH3 (human); experiment: ELISA, 4-fold dilution series of coated peptide, hybridoma supernatant 1:50, normalized
[6] = target: PP2Ac C-terminal peptide pT304-meL309, ac-HVTRRpTPDYFL-CH3 (human); experiment: ELISA, peptide dilution series, supernatant 1:50

α-carboxymethylated PP2Ac, sequence (P67775 whole entry): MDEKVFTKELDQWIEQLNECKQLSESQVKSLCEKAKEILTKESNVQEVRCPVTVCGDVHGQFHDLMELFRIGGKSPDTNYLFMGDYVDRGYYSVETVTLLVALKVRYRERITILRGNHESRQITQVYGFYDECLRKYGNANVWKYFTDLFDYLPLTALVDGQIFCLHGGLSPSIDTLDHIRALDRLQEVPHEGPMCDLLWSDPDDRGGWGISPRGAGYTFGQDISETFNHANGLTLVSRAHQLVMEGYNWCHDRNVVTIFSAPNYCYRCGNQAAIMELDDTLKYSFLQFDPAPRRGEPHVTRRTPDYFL

B1: 7C10-C5: α-carboxymethylation specific mouse monoclonal IgG1 antibody from single clone hybridoma 7C10-C5 (DSM ACC3350) (antibody)
heavy: MYRMQLLSCIALSLALVTNSDVQLQESGPGLVKPSQSLSLTCSVTGYSITSGYYWNWIRQFPGNKLEWMGYISYDGSNNYNPSLKNRISITRDTSKNQFFLKLNSVTTEDTATYYCAGRFAYWGQGTLVTVSAAKTTAPSVYPLAPVCGDTTGSSVTLGCLVKGYFPEPVTLTWNSGSLSSGVHTFPAVLQSDLYTLSSSVTVTSSTWPSQSITCNVAHPASSTKVDKKIEPRGPTIKPCPPCKCPAPNLLGGPSVFIFPPKIKDVLMISLSPIVTCVVVDVSEDDPDVQISWFVNNVEVHTAQTQTHREDYNSTLRVVSALPIQHQDWMSGKEFKCKVNNKDLPAPIERTISKPKGSVRAPQVYVLPPPEEEMTKKQVTLTCMVTDFMPEDIYVEWTNNGKTELNYKNTEPVLDSDGSYFMYSKLRVEKKNWVERNSYSCSVVHEGLHNHHTTKSFSRTPGK
light: MDMRVPAQLLGLLLLWLSGARCDVLMTQTPLSLPVSLGDQASISCRSSQSIVHSNGNTYLEWYLQKPGQSPKLLIYKVSNRFSGVPDRFSGSGSGTDFTLKINRVEAEDLGVYYCFQGSHVPWTFGGGTKLEIKADAAPTVSIFPPSSEQLTSGGASVVCFLNNFYPKDINVKWKIDGSERQNGVLNSWTDQDSKDSTYSMSSTLTLTKDEYERHNSYTCEATHKTSTSPIVKSFNRNEC
modifications: Amino acid sequence of the recombinant 7C10-C5 heavy chain; Amino acid sequence of the recombinant 7C10-C5 light chain
IHC staining after chemical removal of the methyl group [1]: diminished staining upon treatment with NaOH
Rmax [2]: 20.17 RU
binding to carboxymethylated PP2Ac stronger than to non-carboxymethylated PP2Ac [3]: at least 400 fold
binding to non-carboxymethylated PP2Ac [3]: does not bind to non-carboxymethylated PP2Ac to a measureable extent
PP6 meLeu^305 (PP6): — (— <15%)

B2: 7C10-C5 monoclonal antibody (antibody, V domains shown)
VH: DVQLQESGPGLVKPSQSLSLTCSVTGYSITSGYYWNWIRQFPGNKLEWMGYISYDGSNNYNPSLKNRISITRDTSKNQFFLKLNSVTTEDTATYYCAGRFAYWGQGTLVTVSA
VL: DVLMTQTPLSLPVSLGDQASISCRSSQSIVHSNGNTYLEWYLQKPGQSPKLLIYKVSNRFSGVPDRFSGSGSGTDFTLKINRVEAEDLGVYYCFQGSHVPWTFGGGTKLEIK
notes: Used as hybridoma culture supernatant (ELISA, Western blot, IHC) or at 50 µg/mL (SPR); also called 7C10 X63; clone 7C10-C5
fold higher ELISA signal intensity than with the carboxymethylated peptide without phosphorylation (meL309) [4]: 1.6 fold
EC50 (read off the curve) [5]: 0.3 mg/L
fold detection difference against the carboxymethylated peptide (meL309) at lower peptide concentrations [6]: 4 fold
